# Measurements: the DeepSol protein solubility set
# Assay: soluble on expression in E. coli; label from the status in PepcDB or PDB records
row,Sequence,soluble on expression in E. coli
1,MASGASATQRIPSKRQTLDEAYAPPANFLEIEVINPITHGVGKMRYTDYEIRMRSNLPVFKQKESSVRRRYSDFEWVRAELERDSKIVVPTLPGKSFKRQLPFRSDDGIFEEEFIENRRKALELFINKVAGHPLAQNERSLHIFLQEPTIDKNYVPGKIRTA,soluble
2,MNDYSTTRDRVEHYFDRTATHTWERLTSSAPVSRIRQTVREGRDTMRAKMLWRLPKDLTGLRVLDAGCGAGQMTAELAARGAQVMAVDISPQLVEIARKRLPPEHQDRVTFASGDMLADDLGRFDYVVAMDSLIYYTDADIAAALDRLGARTRHSVVFTVAPRTPFLMAFWTMGKLFPRSDRSPVMIPHPFQPLNEATGGRLVKVGRVSRGFYISECLEFRPLEHHHHHH,not soluble
3,KGTLYVVGTPIGNLRDITLRALEILSAVDCIAAEHIQHAQKLLAGHALHTTSTRIMPLHQHNEGSAVEKIIELLGSGKSVALISDAGTPAISDPGALLVQQVLARSLPVVPIPGA,not soluble
4,MFKKLKASLGIGSAKVDTILDEMSVFQGATLKGHVHIKGGDVEQQIDAITIKLNTEMKVEVDDSVSYQTFTIDQLKAVDPFVIQPNEEKQVPFELKLHDETPITAVSALKNQCNVWVETTLDIDFAIDPRDRDYIEVKPLPVASRVIRAIEQAGFTMVKADVEKGFLRGGSFASRSGIYQELEFRNSGFVSSKEIELSFILEGQVMHCLAEIDRSLSFSGDQYRSFTLPINATDAQVAAAVAPTLSL,not soluble
5,SNAMTKPMIQIALDQTNLTDAVAVASNVASYVDVIEVGTILAFAEGMKAVSTLRHNHPNHILVCDMKTTDGGAILSRMAFEAGADWITVSAAAHIATIAACKKVADELNGEIQIEIYGNWTMQDAKAWVDLGITQAIYHRSRDAELAGIGWTTDDLDKMRQLSALGIELSITGGIVPEDIYLFEGIKTKTFIAGRALAGAEGQQTAAALREQIDRFWP,soluble
6,MAHHHHHHMKNVKVELDGKVYTILYEPKKVKFSDLDPLKIMFHSNHVKHSGNSVIRYLVKLTSRDISKMDYVVRHVDISYDRPLKYEDSYKIIGGITSYGSTSLRITLFGTNSSSKNGCSSNLGVKNILRNGACAHVDEAAKPEEGHEKASSSGEFKSEHSEVATRRDPNKKATKSDHHVEKLLAKYKEDNADAVIKLCRNKMNEIASQKHCINYFTAHYTLVRVNKEGAKEPIQEKYKNEFPPIEVEKLKELVSVFC,not soluble
7,MGSDKIHHHHHHMRHENRVAWTEGMFLRVQHFQQSDRWTERLVRSVARSLTPYPWGILEIGLDRSALAIGQFALSGLRGMLPDGTPFDAPEDTDLPAALELDESVKNAVIYLALPARQPGKADMAQTGTSAVNSVRLVASPYEAPDANVETDFLAPIDVGRLNLKLLKTGDDLAGYELLGLARVVEVRSDKAVLLDPDFIPASLNCTASSRLHELMTELLGIVRHRAEAIAERIGDPTIRGTAEVGDYFLLQILNRADPLLKHALSNATRLHPIQFYEQCIQLAGELATFTMESKRATDFPAYRHDDLKATFGAVFEDLRTSLSSVLAQSAVAIELVERRHGVRVGTINDRSLLRDAGFVLAVRADMSAEDVRRTLPARIKVGPVERIAELVNVALPGIPVRPLPVLPRQLPYRAGTIYFELDTKTPLWKQLETSGAIALHLAGDFPGLELEMWALRE,not soluble
8,MIVGSHQQYVVPSYSAAYVPSAYAYPSVYSPYVAAAAYPSVWAWGSNKNKDDAAPRAFARPSALLNNQKPTTA,not soluble
9,MFLQSNEHVGTYYAAVNPELIQPRQALEGDLDCEVLVVGAGFSGLHTALRLVEGGRQVCVIEASRIAWAASGRNGGQALPGWSSDLPPLEADLGYEGARRLWDGMLWAAGEMRELPQRHGFDCDYRVGHLWTAILPRRVGLLYDWQAEANRRWGYEGLRFVAKDELPEWIASERYLAGLYDPHAAHLNPLKLAFGLAAAIERAGGRIHERTRALNYREEGDGYRVRTEHGEIRCAALVLACNAYIDGLDSELSQRMLPVGTYQVATEPLGEERAKSLLPRNCCVTDNQFVLDYFRLTPDHRLLFGGGCTYLGGMPSDIRAATRPYLERVFPQLRGVALEYAWGGHIDCSMRRTPDIGRQGNRYWLQGYSGHGVLPSLAAARAVSDALLGDDETLALYQRLRNPKFPGGQRFAAPLEALGKAYYRLRDLFLEHHHHHH,not soluble
10,MASIKKVYRGMKNGAETINDDLEAINSELTSGGNVVHKTGDETIAGKKTFTGNVEVNGSLTLPTKSWSGELGGGIILSLRKKGTTVEYSIGGEISSSILANSNLVNRSVPNEFCPRNRCSLVGHMVGGWNAFHIDIPSSGVCQWFGPTASSGTPRGTGTYPIDHHHHHH,soluble
11,MIGGLFIYNHKGEVLISRVYRDDIGRNAVDAFRVNVIHARQQVRSPVTNIARTSFFHVKRSNIWLAAVTKQNVNAAMVFEFLYKMCDVMAAYFGKISEENIKNNFVLIYELLDEILDFGYPQNSETGALKTFITQQGIKSQHQTKEEQSQITSQVTGQIGWRREGIKYRRNELFLDVLESVNLLMSPQGQVLSAHVSGRVVMKSYLSGMPECKFGMNDKIVIEKQGKGTADETSKSGKQSIAIDDCTFHQCVRLSKFDSERSISFIPPDGEFELMRYRTTKDIILPFRVIPLVREVGRTKLEVKVVIKSNFKPSLLAQKIEVRIPTPLNTSGVQVICMKGKAKYKASENAIVWKIKRMAGMKESQISAEIELLPTNDKKKWARPPISMNFEVPFAPSGLKVRYLKVFEPKLNYSDHDVIKWVRYIGRSGIYETRC,soluble
12,MQKQAELYRGKAKTVYSTENPDLLVLEFRNDTSAGDGARIEQFDRKGMVNNKFNYFIMSKLAEAGIPTQMERLLSDTECLVKKLDMVPVECVVRNRAAGSLVKRLGIEEGIELNPPLFDLFLKNDAMHDPMVNESYCETFGWVSKENLARMKELTYKANDVLKKLFDDAGLILVDFKLEFGLYKGEVVLGDEFSPDGSRLWDKETLEKMDKDRFRQSLGGLIEAYEAVARRLGVQLD,soluble
13,MGHHHHHHSHMIDKATGILLYGLASRLRDTRRLSFLVSYIASKKIHTEPQLSAALEYVRSHPLDPIDTVDFERECGVGVIVTPEQIEEAVEAAINRHRPQLLVERYHFNMGLLMGEARAVLKWADGKMIKNEVDMQVLHLLGPKLEADLE,soluble
14,MEFVKGDQVEVCSKEDGFLGSYFGATVVSKTPEGSYYKIKYKNLVSDTDQSKRLVEVISADELRPMPPKSLHVLIRCGDKVDAFDKDGWWVGEVTAVRRNIYSVYFSTTDEELEYPLYSLRKHHEWVNGSWVRQ,soluble
15,MSLGVQPPNFSWVLPGRLAGLALPRLPAHYQFLLDLGVRHLVSLTERGPPHSDSCPGLTLHRLRIPDFCPPAPDQIDRFVQIVDEANARGEAVGVHCALGFGRTGTMLACYLVKERGLAAGDAIAEIRRLRPGSIETYEQEKAVFQFYQRTKEGHHHHHH,soluble
16,ATKQAIEKDPWLSPEQKKAQKEKAKARLDEGLKALKAADSLEILKVTEEAFVDKEKNPDSIPNQHKAGTADQARKQALDSL,not soluble
17,MKVDKRIEAVTKFLESLGTVEDYTEDVAVKYRNLILKSYELYENKYNDTVDDSLCIEVWSNGTYVVTNEDLSFDCESEEDLQKLKELFVNTSFYITINELNKVGHKATLSVKAKAKNLRKLGQLIKEYRSCNCKYLKDKVTEIIGDDGRVYLDRISERMD,not soluble
18,MSLAILPPDSLETALSQAQQATQAALQAGKNRLQIEILLPDLNPMGLAAGYLPLFAELGSDLKVFFADAGSAALARREWGETAYSVRGVNERLTPIEASDRAIVIVAPTPVEVTAIEQMCLTAGDRPFIMLNPRLQDVAVVGIGYAGRQLRERFLNTLEPCYYLRPLAETVILWRCYPQAWQIWQYRETAPTCLAEFEQRPTSEDIERALSALGKPRAQSFLSRLSALLRALQSEGHHHHHH,soluble
19,MGSDKIHHHHHHMSKKVVLTREASKNKPWQTYFSQNGYEVMSIPLIKTQPIKINLTREQQETDWLFLTSANAVEYFFTNQYERSNYKIAVIGEKTKEKLAEFGHEPSFVPSIYQSEVFLEEWLNENPEKTSILLPQSNLSRTIIKDTLIEKGYIVFSIELYETIFPEASKKLLTEQLKLNETQIIVFASPSAWKNFYSIAKSFPAQKEKWHIASIGSITTEAILADGWEVKYQPKTFTMKHLADLIIQEELK,not soluble
20,MGSDKIHHHHHHMSNTVRAISPDITLFNKTLTFQEISQNTREAVIYIHGGAWNDPENTPNDFNQLANTIKSMDTESTVCQYSIEYRLSPEITNPRNLYDAVSNITRLVKEKGLTNINMVGHSVGATFIWQILAALKDPQEKMSEAQLQMLGLLQIVKRVFLLDGIYSLKELLVEYPEYDCFTRLAFPDGIQMYEEEPSRVMPYVKKALSRFSIDMHLVHSYSDELLTLRQTNCLISCLQDYQLSFKLYLDDLGLHNDVYKNGKVAKYIFDNIC,not soluble
21,MSLIYCETERLILRDWHEDDLLPFQKMNANYDVRKYFPSLLSYRRSELDMRTMDAVIKDYGIGLFAVEDKESHQWIGFIGLNYIPETSDYPFKELPLYEIGWRLLPEFWGKGLATEGAKATLKLAEEHQIYDVYSFTAEANKASQRVMEKIGMTVYDHFELPNLSKYHLLKRQVRYYINLRKEGHHHHHH,soluble
22,MEKYAVILGKNPELSLVELKAFSRRFRLGVRILEERIYGSNKSFAIIQAKEDIEKYFRWIGGSLKLVRLIGEGVDSIRDLEYSKLFTVSVYGRRVDWKEWRRFGSMIKEVFKEKDSAKFFKPANTYAMPSELILKGFPKVKDVVLLFVDDKVLVGETVRVTDPFELKKLDVERPVVRPTISIPPRLARVMVNLSEIRRGNVLDPFCGTGTIVMELTLQGLNAYGTDIEEGRVRDAKKNIDWLRKEFRIRKYPVLKVCDVRRLRKCFPRTRFDAIITEPYMGKPLKYKPSRGEAIKIAKGLDRLYYQAFESFADVLKRGSIIVFVFPAFSLSNGEVYRRNRPWLEELGFKVLYRVSEGEEEHRIVRDIHVIKFIR,soluble
23,MGSDKIHHHHHHMMKMAEFIMVVGTSSNSGKTTITAGLCRILANKGYKVAPFKSQNMSLNSRVAKEDGEIAIAQYTQSLACRVEPSVHFNPILLKPKGNFISQVIVHGRPYKDMNYNEYRKNKDFFLKKIKESLEILDREYDYVIMEGAGSCCEINLLKDDIANLRIAELVNAKAILVADIDRGGVFASIYGTIKLLPENWRKLIKGIIINKFRGNVEVLKEGIEKIEELTGIPVLGIVPYDENLVLPEEDSQVLQSMRSFGNAKSGVEINVVRFSKISNFTDLDPLRYDAFIKFIDFDDDITGDILIFPGTRSSTKEAYYLKQHNFDEKVLEFLKDGGIVIGICGGYQVLGKELIDKEKKESDVGDIEGLKIFDAKTYFGNDKVVKNSCGFLEIDNKTFNVKGYEIHEGFTYSKEKPLIKIERGFGNCGNGFDGSIKKFGDGLAIGTYFHGIFENYEFRNYIINLIRKRKGLDEIYGDSYKDSIEKSLNYFAEVVERSVNLKPLGINAT,not soluble
24,AKDAVLSVDGIIVARSSNEITDLIPGATLALSGKTTDPATLSVSRDTQLAEAAMTYMVEELNATMKLLGELTRRSTDGSGSGELAGDRVVETLKRQVTALIGQPLTGHGEKPVYLSQLGVSTNRDGSLSFNASAFQKAFEKTPQIFDAMFTDSLTAITPGASIAGKAASSAASGDYIFRLDPVTGEATVGGGATLALPGANGASQYLVLSGGLAGVMVSVESGVTDATLRFGRSFATQLQALLDTAAGQNGAISDREGQIGKVAEEQAKVIEALDARAAKLESRYLAQFTAMEQAVSRMKSTGTYLENLISAWNKD,not soluble
